{
  "source": "patent US20230193226A1",
  "about": "“BUTYRYLCHOLI[…] AN ENHANCED ABILITY TO HYDROLYZE ACYL GHRELIN” (priority 2014, published 2023)",
  "key": {"BChE": {"target": "T1, BChE (Mus musculus, UniProt Q03311, A228S/A357W/S256A/S316G/Y361G)", "T1 construct": "expressed in transfected cells; host or cells: C57bl/6 mice after AAV-mBChE mut gene transfer; activity measured in serum/plasma", "experiment": "Selective BChE inhibition by iso-OMPA in vector-treated mice", "type": "in vivo", "settings": "AAV-mBChE mut mice, iso-OMPA 40 mg kg^-1, 6 hours fast", "method": "FIGS. 6A-6B. […] All mice were then fasted for 6 hours, and serum samples were collected to determine (6A) BChE activity versus the reference substrate (BTCh) and (6B) the levels of acyl ghrelin."}, "human ghrelin": {"system": "human ghrelin", "experiment": "In vitro enzyme screening: ghrelin hydrolyzing activity of purified mutant BChE (ghrelin immunoassay)", "type": "biochemical", "settings": "purified enzyme from HEK293 supernatant"}, "human acyl-ghrelin": {"system": "human acyl-ghrelin", "experiment": "Deacylation of human acyl ghrelin by purified human BChE", "type": "biochemical", "method": "FIGS. 3A-3D. […] (3B) One ng of human acyl-ghrelin was treated with different amount of human BChE. After 20 hours of incubation, residual acyl ghrelin and desacyl ghrelin in each reaction were determined. (3C) One ng of human acyl ghrelin was treated with 10 µg of human BChE and % decrease in residual acyl ghrelin was measured as a function of time. […] The hydrolysis activities with butyrylthiocholine (BTCh) or acyl-ghrelin as substrates were determined by Ellman assay and acyl-ghrelin immunoassay, respectively. Data are normalized to the no inhibitor controls. All values are means ± SD, each with duplicate samples (n=3).\nA sample of purified human BChE was obtained from Dr. O. Lockridge and assessed by gel electrophoresis (FIG. 3A)."}, "[1]": {"settings": "1 ng human acyl-ghrelin, increasing amounts of human BChE, 20 hours"}},
  "data": [
    {"molecule": "CC(C)NP(=O)(NC(C)C)OP(=O)(NC(C)C)NC(C)C", "note": "[iso-OMPA]", "values": [
      {"measurement": "BTCh hydrolysis activity of plasma", "setting": "BChE", "value": "abolished"},
      {"measurement": "level of acyl ghrelin in plasma", "setting": "BChE", "value": "equivalent to the level observed in AAV-Luc-treated control mice"}
    ]},
    {"molecule": "A199S/F227A/S287G/A328W/Y332G (protein) EDDIIIATKNGKVRGMNLTVFGGTVTAFLGIPYAQPPLGRLRFKKPQSLTKWSDIWNATKYANSCCQNIDQSFPGFHGSEMWNPNTDLSEDCLYLNVWIPAPKPKNATVLIWIYGGGFQTGTSSLHVYDGKFLARVERVIVVSMNYRVGALGFLALPGNPEAPGNMGLFDQQLALQWVQKNIAAFGGNPKSVTLFGESSGAASVSLHLLSPGSHSLFTRAILQSGSANAPWAVTSLYEARNRTLNLAKLTGCSRENETEIIKCLRNKDPQEILLNEAFVVPYGTPLGVNFGPTVDGDFLTDMPDILLELGQFKKTQILVGVNKDEGTWFLVGGAPGFSKDNNSIITRKEFQEGLKIFFPGVSEFGKESILFHYTDWVDDQRPENYREALGDVVGDYNFICPALEFTKKFSEWGNNAFFYYFEHRSSKLPWPEWMGVMHGYEIEFVFGLPLERRDNYTKAEEILSRSIVKRWANFAKYGNPNETQNNSTSWPVFKSTEQKYLTLNTESTRIMTKLRAQQCRFWTSFFPKVLEMTGNIDEAEWEWKAGFHRWNNYMMDWKNQFNDYTSKKESCVGL", "values": [
      {"measurement": "ghrelin hydrolyzing activity in vitro", "setting": "human ghrelin", "value": "modest activity, comparable to that of wild type human BChE"}
    ]},
    {"molecule": "A199S/S227A/S287G/A328W/Y332G (protein) EEDFIITTKTGRVRGLSMPVLGGTVTAFLGIPYAQPPLGSLRFKKPQPLNKWPDIHNATQYANSCYQNIDQAFPGFQGSEMWNPNTNLSEDCLYLNVWIPVPKPKNATVMVWIYGGGFQTGTSSLPVYDGKFLARVERVIVVSMNYRVGALGFLAFPGNPDAPGNMGLFDQQLALQWVQRNIAAFGGNPKSITIFGESSGAASVSLHLLCPQSYPLFTRAILESGSANAPWAVKHPEEARNRTLTLAKFTGCSKENEMEMIKCLRSKDPQEILRNERFVLPSDSILGINFGPTVDGDFLTDMPHTLLQLGKVKKAQILVGVNKDEGTWFLVGGAPGFSKDNDSLITRKEFQEGLNMYFPGVSRLGKEAVLFYYVDWLGEQSPEVYRDALDDVIGDYNIICPALEFTKKFAELENNAFFYFFEHRSSKLPWPEWMGVMHGYEIEFVFGLPLGRRVNYTRAEEIFSRSIMKTWANFAKYGHPNGTQGNSTMWPVFTSTEQKYLTLNTEKSKIYSKLRAPQCQFWRLFFPKVLEMTGDIDETEQEWKAGFHRWSNYMMDWQNQFNDYTSKKESCTAL", "values": [
      {"measurement": "ghrelin hydrolyzing activity in vitro", "setting": "human ghrelin", "value": "enhanced activity"},
      {"measurement": "ghrelin hydrolyzing activity relative to wild type mouse BChE", "setting": "human ghrelin", "value": "at least 20 fold"}
    ]},
    {"molecule": "human BChE (protein, listed as Homo sapiens) MHSKVTIICIRFLFWFLLLCMLIGKSHTEDDIIIATKNGKVRGMNLTVFGGTVTAFLGIPYAQPPLGRLRFKKPQSLTKWSDIWNATKYANSCCQNIDQSFPGFHGSEMWNPNTDLSEDCLYLNVWIPAPKPKNATVLIWIYGGGFQTGTSSLHVYDGKFLARVERVIVVSMNYRVGALGFLALPGNPEAPGNMGLFDQQLALQWVQKNIAAFGGNPKSVTLFGESAGAASVSLHLLSPGSHSLFTRAILQSGSFNAPWAVTSLYEARNRTLNLAKLTGCSRENETEIIKCLRNKDPQEILLNEAFVVPYGTPLSVNFGPTVDGDFLTDMPDILLELGQFKKTQILVGVNKDEGTAFLVYGAPGFSKDNNSIITRKEFQEGLKIFFPGVSEFGKESILFHYTDWVDDQRPENYREALGDVVGDYNFICPALEFTKKFSEWGNNAFFYYFEHRSSKLPWPEWMGVMHGYEIEFVFGLPLERRDNYTKAEEILSRSIVKRWANFAKYGNPNETQNNSTSWPVFKSTEQKYLTLNTESTRIMTKLRAQQCRFWTSFFPKVLEMTGNIDEAEWEWKAGFHRWNNYMMDWKNQFNDYTSKKESCVGL", "values": [
      {"measurement": "acyl ghrelin hydrolysis rate as a function of time", "setting": "human acyl-ghrelin; 1 ng human acyl ghrelin, 10 µg human BChE", "value": "linear hydrolysis rate"},
      {"measurement": "amount of acyl ghrelin", "setting": "human acyl-ghrelin; [1]", "value": "decrease in the amount of acyl ghrelin"},
      {"measurement": "amount of desacyl ghrelin", "setting": "human acyl-ghrelin; [1]", "value": "increase in the amount of the breakdown product, desacyl ghrelin"}
    ]}
  ]
}
